These results are taken from patent US20200270365A1.

Assay [1] addresses biotin-PCSK9-his (human) (UniProt Q8NBP7). Description: competitive ELISA, one antibody coated, biotin-PCSK9-his + 50-fold competing antibody; competitor 21B12 (itself). Background: An ELISA detects its analyte on a solid surface through an enzyme-linked reagent.
Assay [2] shares this target. Briefly: competitive ELISA, one antibody coated, biotin-PCSK9-his + 50-fold competing antibody; competitor h011-3133-YTE.

For “21B12 (U.S. Pat. No. 8,030,457B2) (antibody)”, the IR (%) with biotin-PCSK9-his (human) [1] was 97.8%; with biotin-PCSK9-his (human) [2], 3.01%.
